Reference: the RNAGym collection of RNA variant scans (doi:10.1073/pnas.2313332121)

B1: TPR t1 (parent)
chain: GACCAAUCUGCCCUCAGAGCUCGAGAACAUCUUCGGAUGCAGAGGAGGCAGGCUUCGGUGGCGCGAUAGCGCCAACGUCCUCAACCUCCAAUGCAUCCCACCACAUGAUGAUGCCUGAAGAGCCUUGGUUUUUUG

Variants of: B1
Test: polymerase ribozyme fitness, log enrichment relative to wild type (log ratio); higher = more active; in vitro selection for triplet polymerase activity
How it was run: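 To select mutant libraries of each subunit of a heterodimeric triplet polymerase ribozyme, built by PCR and transcribed, each was annealed with a biotinylated primer, partner subunit and triplets, then incubated frozen at −7 °C. Extended constructs were gel-excised, captured on streptavidin beads and amplified by RT-PCR, in one round carried out in triplicate. Illumina sequencing of input and output libraries kept genotypes with ≥10 input reads and ≥1 read per output. Fitness is the base-2 logarithm of genotype enrichment relative to wild-type enrichment, from inverse-variance-weighted replicate averages.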

| Variant | polymerase ribozyme fitness (log ratio) |
| --- | --- |
| G47U A95U C101U C104A A111G C123G | -5.49 |
| G117U U133C | -2.23 |
| C124A U133G | -0.27 |
| A84C G93A C101U | -1.17 |
| A18C A24G | -3.95 |
| A43U U59C | -1.99 |
| G44C C102A G120U | -4.59 |
| G113C U116G U130G | -5.3 |
| C8G C115G | 1.06 |
| C8A A18G U32A G61A C123A | -2.56 |
| C73A A111U | -2.93 |
| U38A C82A C114A G120C A121C U132C | -3.34 |
| G45C C56U U81G G113C | -4.36 |
| C11G G51C A84G U131C | -3.58 |
| A16C G44U G69U U125G | -2.18 |
| C99A | -6.24 |
| A5U G63U U133A | -2.34 |
| C12U U87C A103U G120A | -1.81 |
| G113A C124U | -0.971 |
| C40U G63C | -0.94 |
| G61C A90C U126A | -4.32 |

| Variant | polymerase ribozyme fitness (log ratio) |
| --- | --- |
| G10U C11A C13G G19A G57U A90G A91U | -2.55 |
| C11G C13A A16U C79U | -2.88 |
| G10A C13A C64A U112A | -7.66 |
| C3A C123G | 0.176 |
| A50U C70U | -1.67 |
| G45U C56G | -2.16 |
| C64U C79U | -0.541 |
| A95U A111U G120U | -5.49 |
| C20G G42A G45A U54G C79U C123U | -6.38 |
| C56U A68U C70U U92C C104U C124U | -7.15 |
| C20A G45U A100U | -5.17 |
| G69U U81G A103U | -6.76 |
| C70A C114U | -3.91 |
| A26G A74G G93U U106A U109C | -3.92 |
| U21A G47C | -1.67 |
| C13A A24U G63C A83U A84C G120U G122A U125A | -6.79 |
| C11G G57A G58A C62A G63A | -3.98 |
| C12U G23A | -3.55 |
| C70U C102A G127A | -3.84 |
| A18G C20U A29U U32G C53A C97U | -2.71 |
| C15A G17A C73G U112A | -4.93 |

| Variant | polymerase ribozyme fitness (log ratio) |
| --- | --- |
| G57U C72A C88U | -1.77 |
| G47U C56U U116C | -2.14 |
| G51C G60C A75U | -2.9 |
| C20U A43C G47A C82G A95U A105C U112A | -4.61 |
| C3U G93A C102U | -2.82 |
| C11G A26U | -1.77 |
| C3G C8G U32C C115G | -2.01 |
| C72G U78C G113A | -1.93 |
| G71U G120A | 0.754 |
| A26U C53U U116G | -6.15 |
| A41U A84C | -1.99 |
| C56G U87G | -0.352 |
| A91C C104A | -3.58 |
| C28G U32C G69C U78C C86G G117U C123U | -7.36 |
| C3A C53A C73U | -1.17 |
| C28G U59A C104U G113C | -5 |
| A26U C88A | -3.45 |
| C8U C98U | -1.28 |
| C70U A84G | -1.86 |
| C4U G44U C72A | -0.827 |
| C104U C123A U125G | 1.28 |

| Variant | polymerase ribozyme fitness (log ratio) |
| --- | --- |
| G57C U106A | -0.376 |
| C13G G57U | -1.94 |
| C56U G71A C72G G77C C82G A111U | -6.46 |
| C86G U133A | -0.824 |
| C88U C94U U129G | -1.48 |
| C11A G36A C79U U87A | -4.09 |
| G52U C70G C72U | -3.48 |
| A6C C40A C70G | -5.35 |
| A2G C13A A68U C85A A103U G117U | -6.8 |
| C3A C8G G63C A95C G117A G128U | -0.17 |
| U112A C114G | -0.0146 |
| C88U C102U | -1.5 |
| C8G C70A | -0.64 |
| C20A C22U G42U G113U U132A | -3.71 |
| C12G G36C C114A G120A | -2.67 |
| C13U C34A U78G | -3.35 |
| C3U A74U C101U G113A C123G | -1.18 |
| G45U G93C C124G | 0.153 |
| C94U A111G | 0.127 |
| A46C C115G | -2.59 |
